We go through 2 sequences from patent US11839642B2, “Anti-angiogenin peptides, compositions, and methods of use” (The Board of Regents of the University of Oklahoma, priority 2018, dated 2023).

The experiment deals with T1, angiogenin (Homo sapiens, UniProt P03950).
T1 construct: purchased R&D systems, Inc., Minneapolis
Kind of experiment: Affinity-selection (biopanning) of Ph.D.-12 phage library against angiogenin, DNA sequencing of plaques. In kind it is binding. To be noted: after fourth round of affinity-selection. As for the experimental part:
Phage affinity-selection (biopanning) procedure was performed by following the standard protocol with minor modifications (FIG. 1). The target protein angiogenin (R&D systems, Inc., Minneapolis) used for biopanning was diluted to 20, 4, 0.8 and 0.16 μg/mL in 0.1 M NaHCO3 (pH=8.6) in the first, second, third and fourth round, respectively. During each round, 400 μL of angiogenin with designated concentration, was added into a well (diameter is 15.6 mm) of the 24 well cell culture plate (Cat. #: 142475, Thermo Fisher Scientific), and incubated overnight at 4° C. with the lid on in a humidified container. Then the supernatant was pipetted out and the plate was firmly slapped face down on a paper towel to remove the residual solution. Afterwards, 500 μL of blocking buffer (5 mg/mL BSA, 0.1M NaHCO3) was added into the well and incubated for 3 h at 4° C., after which the supernatant was discarded. […]
A small amount (5 μL) of the above eluate mixture was diluted 10-fold with PBS buffer. […] The titer was calculated by this equation: titer=1000×N×M pfu/mL, where N and M are the dilution factor and the number of the blue phage plaques on a plate, respectively. […]

T1 sequence (P03950 25-147): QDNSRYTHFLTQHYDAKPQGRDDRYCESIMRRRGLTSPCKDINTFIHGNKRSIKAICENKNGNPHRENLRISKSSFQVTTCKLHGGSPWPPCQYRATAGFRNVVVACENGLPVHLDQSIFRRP

Take “WPYWNHHSHNNV (PEPTIDE (1)..(12) Completely synthesized in the lab - Ph.D.-12 Phage Display Peptide Library) [WV peptide]”: the “repeats of the peptide sequence among 57 sequenced plaques” value came to 11 repeats.
In the case of “FHHPSIHDRHRH (PEPTIDE (1)..(12) Completely synthesized in the lab - Ph.D.-12 Phage Display Peptide Library) [FH peptide]” it was 4 repeats.
